Assay results from US20100260668A1 (published 2010).

T1: PlGF (UniProt P49763-2 21-149, limits assumed)
T1 construct: bought antigen coated on the ELISA plate; also called Placental GF
T1 sequence (looked up): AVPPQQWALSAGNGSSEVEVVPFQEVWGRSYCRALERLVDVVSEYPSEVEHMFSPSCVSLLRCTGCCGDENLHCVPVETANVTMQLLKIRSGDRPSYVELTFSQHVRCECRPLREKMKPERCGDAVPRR

T2: PlGF (UniProt P49763-2 21-149, limits assumed)
T2 construct: Bought antigen coated on the ELISA plate; also called Placental GF; placental growth factor
T2 sequence (looked up): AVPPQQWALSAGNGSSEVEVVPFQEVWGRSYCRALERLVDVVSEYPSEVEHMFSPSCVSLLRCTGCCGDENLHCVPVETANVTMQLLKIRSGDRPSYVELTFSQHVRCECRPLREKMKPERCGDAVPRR


Tests used:
VEGF [1] = target: T3, VEGF (UniProt P15692 27-191, limits assumed); experiment: direct bind ELISA, C-terminal VD
T3 construct: bought antigen coated on the ELISA plate
T3 sequence (P15692 other isoform, or with tags, fused parts or gaps limits assumed): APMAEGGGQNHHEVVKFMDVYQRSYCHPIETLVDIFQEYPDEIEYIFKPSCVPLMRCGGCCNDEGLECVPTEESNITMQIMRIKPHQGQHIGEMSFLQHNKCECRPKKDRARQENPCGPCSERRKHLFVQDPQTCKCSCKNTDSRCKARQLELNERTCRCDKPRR
Description: (§1) Enzyme Linked Immunosorbent Assays to screen for antibodies that bind a desired target antigen were performed as follows. […] Plates were washed four times with PBS containing 0.02% Tween 20. Plates were blocked by the addition of 300 μL/well blocking solution (non-fat dry milk powder, various retail suppliers, diluted to 2% in PBS) for ½ hour at room temperature. Plates were washed four times after blocking with PBS containing 0.02% Tween 20.
(§2) Plates were washed 4 times with PBS containing 0.02% Tween 20.

PlGF [2] = target: T1, PlGF; experiment: direct bind ELISA, N-terminal VD
[3] = target: T4, DLL4 ECD/His tag (R&D 1506-D4-050) (UniProt Q9NR61 27-529); experiment: direct bind ELISA, DLL4 on plate; DLL4 VD C-term.; HC Short, LC Short
T4 construct: extracellular domain; Bought antigen coated on the ELISA plate; not shown: His tag

DLL4 = target: T5, DLL4 (human, UniProt Q9NR61 27-685); experiment: flow cytometry on 293G-human DLL4 cells; DLL4 VD C-terminal
T5 construct: whole, on cells; also called human DLL4

VEGF [4] = target: T6, VEGF (UniProt P15692 27-191, limits assumed); experiment: direct bind ELISA, antigen on plate; C-terminal VD
T6 construct: Bought antigen coated on the ELISA plate; also called vascular endothelial growth factor
T6 sequence (P15692 other isoform, or with tags, fused parts or gaps limits assumed): as above
Description: as §1, §2

PlGF [5] = target: T2, PlGF; experiment: direct bind ELISA, antigen on plate; N-terminal VD
Description: as §1, §2

Row | Binder | EC50 (VEGF [1]) [nM] | EC50 (PlGF [2]) [nM] | EC50 (DLL4) [nM] | further results
1 | DVD543 (bispecific antibody, human IgG1, kappa, HC linker short, LC linker short; also called DVD-Ig DVD543) heavy: not shown light: AIQMTQSSSSFSVSLGDRVTITCKASEDIYNRFAWYQQKPGNAPRLLISGAASLEAGVPSRFSGSGSGQDYTLSITSLQTEDVATYYCQQYWSTPWTFGGGTKLEIKRTVAAPDIQMTQSPSSLSASVGDRVTITCRASQDVSTAVAWYQQKPGKAPKLLIYSASFLYSGVPSRFSGSGSGTDFTLTISSLQPEDFATYYCQQSYTTPPTFGQGTKVEIKRTVAAPSVFIFPPSDEQLKSGTASVVCLLNNFYPREAKVQWKVDNALQSGNSQESVTEQDSKDSTYSLSSTLTLSKADYEKHKVYACEVTHQGLSSPVTKSFNRGEC | 1120 | 0.14 |  | 
2 | DVD559 (bispecific antibody, human IgG1, kappa, HC linker long, LC linker short; also called DVD-Ig DVD559) heavy: not shown light: AIQMTQSSSSFSVSLGDRVTITCKASEDIYNRFAWYQQKPGNAPRLLISGAASLEAGVPSRFSGSGSGQDYTLSITSLQTEDVATYYCQQYWSTPWTFGGGTKLEIKRTVAAPDIQMTQSPSSLSASVGDRVTITCRASQDVSTAVAWYQQKPGKAPKLLIYSASFLYSGVPSRFSGSGSGTDFTLTISSLQPEDFATYYCQQSYTTPPTFGQGTKVEIKRTVAAPSVFIFPPSDEQLKSGTASVVCLLNNFYPREAKVQWKVDNALQSGNSQESVTEQDSKDSTYSLSSTLTLSKADYEKHKVYACEVTHQGLSSPVTKSFNRGEC | 39.2 | 0.13 |  | 
3 | DVD583 (bispecific antibody, human IgG1, kappa, outer AB047 (PlGF), inner AB071 (VEGF); HC linker long, LC linker long; also called DVD-Ig DVD583) heavy: not shown light: DIVLTQSPDSLAVSLGERVTMNCKSSQSLLNSGMRKSFLAWYQQKPGQSPKLLIYWASTRESGVPDRFTGSGSGTDFTLTISSVQAEDVAVYYCKQSYHLFTFGSGTKLEIKRTVAAPSVFIFPPDIQMTQSPSSLSASVGDRVTITCRASQVIRRSLAWYQQKPGKAPKLLIYAASNLASGVPSRFSGSGSGTDFTLTISSLQPEDFATYYCQQSNTSPLTFGQGTKVEIKRTVAAPSVFIFPPSDEQLKSGTASVVCLLNNFYPREAKVQWKVDNALQSGNSQESVTEQDSKDSTYSLSSTLTLSKADYEKHKVYACEVTHQGLSSPVTKSFNRGEC | 560 | 0.32 |  | 
4 | DVD492 (bispecific antibody, human IgG1, kappa, DVD-Ig; outer AB071 (VEGF), inner AB072 (DLL4); HC short, LC short linker; also called DVD492H; DVD492L) heavy: not shown light: DIQMTQSPSSLSASVGDRVTITCRASQVIRRSLAWYQQKPGKAPKLLIYAASNLASGVPSRFSGSGSGTDFTLTISSLQPEDFATYYCQQSNTSPLTFGQGTKVEIKRTVAAPDIQMTQSSSYLSVSLGGRVTITCKASDHINNWLAWYQQKPGNAPRLLISGATSLETGVPSRFSGSGSGKDYTLSITSLQTEDVATYYCQQYWSIPLTFGAGTKLELKRTVAAPSVFIFPPSDEQLKSGTASVVCLLNNFYPREAKVQWKVDNALQSGNSQESVTEQDSKDSTYSLSSTLTLSKADYEKHKVYACEVTHQGLSSPVTKSFNRGEC |  |  |  | EC50 [3]: 1.77 nM
5 | DVD476 (bispecific antibody, human IgG1, kappa, DVD-Ig; also called VEGF and DLL4 DVD-Ig, HC linker long, LC linker short) heavy: not shown light: DIQMTQSPSSLSASVGDRVTITCSASQDISNYLNWYQQKPGKAPKVLIYFTSSLHSGVPSRFSGSGSGTDFTLTISSLQPEDFATYYCQQYSTVPWTFGQGTKVEIKRTVAAPDIQMTQSPSSLSASVGDRVTITCRASQDVSTAVAWYQQKPGKAPKLLIYSASFLYSGVPSRFSGSGSGTDFTLTISSLQPEDFATTYYCQQSYTGTVTFGQGTKVEIKRTVAAPSVFIFPPSDEQLKSGTASVVCLLNNFYPREAKVQWKVDNALQSGNSQESVTEQDSKDSTYSLSSTLTLSKADYEKHKVYACEVTHQGLSSPVTKSFNRGEC |  |  | 11.7 | 
6 | DVD470 (bispecific antibody, human IgG1, kappa, DVD-Ig; also called VEGF and DLL4 DVD-Ig, HC linker long, LC linker long) heavy: not shown light: DIQMTQSPSSLSASVGDRVTITCSASQDISNYLNWYQQKPGKAPKVLIYFTSSLHSGVPSRFSGSGSGTDFTLTISSLQPEDFATYYCQQYSTVPWTFGQGTKVEIKRTVAAPSVFIFPPDIQMTQSPSSLSASVGDRVTITCRASQDVSTAVAWYQQKPGKAPKLLIYSASFLYSGVPSRFSGSGSGTDFTLTISSLQPEDFATTYYCQQSYTGTVTFGQGTKVEIKRTVAAPSVFIFPPSDEQLKSGTASVVCLLNNFYPREAKVQWKVDNALQSGNSQESVTEQDSKDSTYSLSSTLTLSKADYEKHKVYACEVTHQGLSSPVTKSFNRGEC |  |  | 1.72 | 
7 | DVD482 (bispecific antibody, human IgG1, kappa, DVD-Ig; also called VEGF and DLL4 DVD-Ig, HC linker short, LC linker long) heavy: not shown light: DIQMTQSPSSLSASVGDRVTITCSASQDISNYLNWYQQKPGKAPKVLIYFTSSLHSGVPSRFSGSGSGTDFTLTISSLQPEDFATYYCQQYSTVPWTFGQGTKVEIKRTVAAPSVFIFPPDIQMTQSPSSLSASVGDRVTITCRASQDVSTAVAWYQQKPGKAPKLLIYSASFLYSGVPSRFSGSGSGTDFTLTISSLQPEDFATTYYCQQSYTGTVTFGQGTKVEIKRTVAAPSVFIFPPSDEQLKSGTASVVCLLNNFYPREAKVQWKVDNALQSGNSQESVTEQDSKDSTYSLSSTLTLSKADYEKHKVYACEVTHQGLSSPVTKSFNRGEC |  |  | 3.25 | 
8 | DVD474 (bispecific antibody, human IgG1, kappa, DVD-Ig; outer AB071 (VEGF), inner AB015 (DLL4); also called VEGF and DLL4 DVD-Ig, HC linker long, LC linker long) heavy: not shown light: DIQMTQSPSSLSASVGDRVTITCRASQVIRRSLAWYQQKPGKAPKLLIYAASNLASGVPSRFSGSGSGTDFTLTISSLQPEDFATYYCQQSNTSPLTFGQGTKVEIKRTVAAPSVFIFPPDIQMTQSPSSLSASVGDRVTITCRASQDVSTAVAWYQQKPGKAPKLLIYSASFLYSGVPSRFSGSGSGTDFTLTISSLQPEDFATTYYCQQSYTGTVTFGQGTKVEIKRTVAAPSVFIFPPSDEQLKSGTASVVCLLNNFYPREAKVQWKVDNALQSGNSQESVTEQDSKDSTYSLSSTLTLSKADYEKHKVYACEVTHQGLSSPVTKSFNRGEC |  |  | 2.19 | 
9 | DVD486 (bispecific antibody, human IgG1, kappa, DVD-Ig; outer AB071 (VEGF), inner AB015 (DLL4); also called VEGF and DLL4 DVD-Ig, HC linker short, LC linker long) heavy: not shown light: DIQMTQSPSSLSASVGDRVTITCRASQVIRRSLAWYQQKPGKAPKLLIYAASNLASGVPSRFSGSGSGTDFTLTISSLQPEDFATYYCQQSNTSPLTFGQGTKVEIKRTVAAPSVFIFPPDIQMTQSPSSLSASVGDRVTITCRASQDVSTAVAWYQQKPGKAPKLLIYSASFLYSGVPSRFSGSGSGTDFTLTISSLQPEDFATTYYCQQSYTGTVTFGQGTKVEIKRTVAAPSVFIFPPSDEQLKSGTASVVCLLNNFYPREAKVQWKVDNALQSGNSQESVTEQDSKDSTYSLSSTLTLSKADYEKHKVYACEVTHQGLSSPVTKSFNRGEC |  |  | 2.09 | 
10 | DVD581 (bispecific antibody, human IgG1, kappa, HC linker long, LC linker long; also called DVD-Ig DVD581) heavy: not shown light: DIVLTQSPDSLAVSLGERVTMNCKSSQSLLNSGMRKSFLAWYQQKPGQSPKLLIYWASTRESGVPDRFTGSGSGTDFTLTISSVQAEDVAVYYCKQSYHLFTFGSGTKLEIKRTVAAPSVFIFPPDIQMTQSPSSLSASVGDRVTITCRASQDVSTAVAWYQQKPGKAPKLLIYSASFLYSGVPSRFSGSGSGTDFTLTISSLQPEDFATYYCQQSYTTPPTFGQGTKVEIKRTVAAPSVFIFPPSDEQLKSGTASVVCLLNNFYPREAKVQWKVDNALQSGNSQESVTEQDSKDSTYSLSSTLTLSKADYEKHKVYACEVTHQGLSSPVTKSFNRGEC | 35.9 | 0.39 |  | 
11 | DVD589 (bispecific antibody, human IgG1, kappa, HC linker long, LC linker short; also called DVD589VH; DVD589VL) heavy: not shown light: DIVLTQSPDSLAVSLGERVTMNCKSSQSLLNSGMRKSFLAWYQQKPGQSPKLLIYWASTRESGVPDRFTGSGSGTDFTLTISSVQAEDVAVYYCKQSYHLFTFGSGTKLEIKRTVAAPDIQMTQSPSSLSASVGDRVTITCRASQDVSTAVAWYQQKPGKAPKLLIYSASFLYSGVPSRFSGSGSGTDFTLTISSLQPEDFATYYCQQSYTTPPTFGQGTKVEIKRTVAAPSVFIFPPSDEQLKSGTASVVCLLNNFYPREAKVQWKVDNALQSGNSQESVTEQDSKDSTYSLSSTLTLSKADYEKHKVYACEVTHQGLSSPVTKSFNRGEC |  |  |  | EC50 (VEGF [4]): 1360 nM; EC50 (PlGF [5]): 0.12 nM
12 | DVD551 (bispecific antibody, human IgG1, kappa, HC linker long, LC linker long; also called DVD-Ig DVD551) heavy: not shown light: AIQMTQSSSSFSVSLGDRVTITCKASEDIYNRFAWYQQKPGNAPRLLISGAASLEAGVPSRFSGSGSGQDYTLSITSLQTEDVATYYCQQYWSTPWTFGGGTKLEIKRTVAAPSVFIFPPDIQMTQSPSSLSASVGDRVTITCRASQDVSTAVAWYQQKPGKAPKLLIYSASFLYSGVPSRFSGSGSGTDFTLTISSLQPEDFATYYCQQSYTTPPTFGQGTKVEIKRTVAAPSVFIFPPSDEQLKSGTASVVCLLNNFYPREAKVQWKVDNALQSGNSQESVTEQDSKDSTYSLSSTLTLSKADYEKHKVYACEVTHQGLSSPVTKSFNRGEC | 1590 | 97 |  | 
13 | DVD591 (bispecific antibody, human IgG1, kappa, DVD-Ig, N-terminal PlGF (AB047), C-terminal VEGF (AB071); HC linker long, LC linker short; also called DVD591VH; DVD591VL) heavy: not shown light: DIVLTQSPDSLAVSLGERVTMNCKSSQSLLNSGMRKSFLAWYQQKPGQSPKLLIYWASTRESGVPDRFTGSGSGTDFTLTISSVQAEDVAVYYCKQSYHLFTFGSGTKLEIKRTVAAPDIQMTQSPSSLSASVGDRVTITCRASQVIRRSLAWYQQKPGKAPKLLIYAASNLASGVPSRFSGSGSGTDFTLTISSLQPEDFATYYCQQSNTSPLTFGQGTKVEIKRTVAAPSVFIFPPSDEQLKSGTASVVCLLNNFYPREAKVQWKVDNALQSGNSQESVTEQDSKDSTYSLSSTLTLSKADYEKHKVYACEVTHQGLSSPVTKSFNRGEC |  |  |  | EC50 (VEGF [4]): 1170 nM; EC50 (PlGF [5]): 0.13 nM
14 | DVD561 (bispecific antibody, human IgG1, kappa, outer AB074 (PlGF), inner AB071 (VEGF); HC linker long, LC linker short; also called DVD-Ig DVD561) heavy: not shown light: AIQMTQSSSSFSVSLGDRVTITCKASEDIYNRFAWYQQKPGNAPRLLISGAASLEAGVPSRFSGSGSGQDYTLSITSLQTEDVATYYCQQYWSTPWTFGGGTKLEIKRTVAAPDIQMTQSPSSLSASVGDRVTITCRASQVIRRSLAWYQQKPGKAPKLLIYAASNLASGVPSRFSGSGSGTDFTLTISSLQPEDFATYYCQQSNTSPLTFGQGTKVEIKRTVAAPSVFIFPPSDEQLKSGTASVVCLLNNFYPREAKVQWKVDNALQSGNSQESVTEQDSKDSTYSLSSTLTLSKADYEKHKVYACEVTHQGLSSPVTKSFNRGEC | 241 | 1.04 |  | 
